Results reported in FireProtDB (doi:10.1021/bi00212a026).

Conditions: Bacillus amyloliquefaciens; pH 6.3; 25 °C; Urea; Fluorescence; MES 50 mM; NaCl 0.15 M; reversible: yes; whole UniProt chain shown

B1: Ribonuclease wild type, P00648 (protein)
chain: MMKMEGIALKKRLSWISVCLLVLVSAAGMLFSTAAKTETSSHKAHTEAQVINTFDGVADYLQTYHKLPDNYITKSEAQALGWVASKGNLADVAPGKSIGGDIFSNREGKLPGKSGRTWREADINYTSGFRNSDRILYSSDWLIYKTTDHYQTFTKIR
**Q.** With B1 as the protein, how does the denaturant m value read?
**A.** 1.92 kcal/mol/M

**Q.** What about the “denaturant midpoint (higher = more stable)” value of the same protein?
**A.** 4.58 M

**Q.** And the unfolding free energy?
**A.** 8.79 kcal/mol
